B1: LT1002: murine anti-S1P monoclonal antibody, IgG1 kappa, from hybridoma clone 306D326.26 (antibody, listed as Mus sp., V domains shown)
VH: QAHLQQSDAELVKPGASVKISCKVSGFIFIDHTIHWMKQRPEQGLEWIGCISPRHDITKYNEMFRGKATLTADKSSTTAYIQVNSLTFEDSAVYFCARGGFYGSTIWFDFWGQGTTLTVS
VL: ETTVTQSPASLSMAIGEKVTIRCITTTDIDDDMNWFQQKPGEPPNLLISEGNILRPGVPSRFSSSGYGTDFLFTIENMLSEDVADYYCLQSDNLPFTFGSGTKLEIK

Tests used:
[1] = LT1009 formulation stability study (visual inspection, syringeability, SE-HPLC); format: physicochemical; conditions: independent of antibody concentration
Description: Preferred formulations should not only stabilize the antibody, but also be tolerated by patients when injected. […] Additionally, three different storage temperatures (5° C., 25° C., and 40° C.) were also examined (representing actual, accelerated, and temperature stress conditions, respectively). Stability was assessed using representative samples taken from the various formulations at five different time points: at study initiation and after two weeks, 1 month, 2 months, and 3 months. At each time point, testing involved visual inspection, syringeability (by pulling through a 30-gauge needle), and size exclusion high performance liquid chromatography (SE-HPLC). Circular dichroism (CD) spectroscopy was also used to assess protein stability since above a certain temperature, proteins undergo denaturation, followed by some degree of aggregate formation. The observed transition is referred to as an apparent denaturation or “melting” temperature (Tm) and indicate the relative stability of a protein. […]
For a given time point, aliquots from each sample were subjected to a series of standard analyses, including visual inspection, syringeability, pH, SDS-PAGE (under both reducing and non-reducing conditions), SE-HPLC, and IEF. Protein concentrations were determined by UV spectroscopy (OD-280). […]

[2] = Circular dichroism thermal denaturation of LT1009; format: physicochemical
Description: Circular dichroism spectroscopy was performed separately from the formulation studies. An Aviv 202 CD spectrophotometer was used to perform these analyses. Near UV CD spectra were collected from 400 nm to 250 nm. In this region, the disulfides and aromatic side chains contribute to the CD signals. In the far UV wavelength region (250-190 nm), the spectra are dominated by the peptide backbone. Thermal denaturation curves were generated by monitoring at 205 nm, a wavelength commonly used for b-sheet proteins. Data was collected using 0.1 mg/ml samples with heating from 25° C. to 85° C. Data were collected in 1° C. increments. The total time for such a denaturation scan was between 70 and 90 minutes. The averaging time was 2 seconds.

CNV lesions = assay: Sonepcizumab dose response in laser CNV model (fluorescein-labeled dextran); format: in vivo, mice
Description: Mice (n=10) received a single, bilateral intravitreal injection of escalating doses of sonepcizumab (0.085, 0.85, 1.7 or 5 μg/eye) or a high dose nonspecific (NS) antibody (3.0 μg/eye) one day prior to laser-induced rupture of Bruch's membrane. Fourteen days after laser rupture, mice were anesthetized and perfused with fluorescein-labeled dextran and choroidal flatmounts were prepared for analysis of CNV lesion size.
In this study, the effect of sonepcizumab dose amount and dose interval on CNV inhibition were examined using another validated method of quantifying CNV area in which animals were perfused with fluorescein-labeled dextran just before sacrifice. Sonepcizumab induced a dose-dependent reduction in the area of CNV resulting in a maximal inhibition of approximately 50%, at a dose of 5 μg/eye. This reduction was significant (p<0.0001 compared to non-specific antibody control using an unpaired t-test). In the dosing frequency study, similar efficacy was observed between groups treated with Sonepcizumab at a single timepoint (day 0) or at multiple timepoints (days 0 and 7) over the 14-day study.

[3] = test system: cardiac scar formation / immune-cell wound infiltration; assay: Permanent myocardial infarction murine model (fibrosis, immune cell infiltration); format: in vivo, mice
Description: SPHINGOMAB reduced immune-cell wound infiltration in vivo. Mice were subjected to MI, treated with saline or 25 mg/kg SPHINGOMAB 48 hr. after surgery and then sacrificed on day 4. SPHINGOMAB reduced macrophage (A) and mast cell (B) infiltration into the wound. Data are represented as fold decrease of saline-treated values.
Studies evaluated the efficacy of SPHINGOMAB to reduce cardiac scar formation after permanent myocardial infarction (MI) via ligation of the left descending coronary artery in mice. Systemic administration of 25 mg/kg SPHINGOMAB or saline was initiated 48 hrs after surgery. Antibody administration at 48 hr. was chosen to allow normal, reparative scar formation to occur during the early remodeling phase and permit beneficial, S1P-stimulated angiogenesis immediately after the MI. Two weeks after the infarct, mice were sacrificed and fibrosis was accessed by Masson's trichrome staining of the cardiac tissue. […] As a control for any non-specific wound-healing responses, sham animals underwent thoracotomy without coronary artery ligation (FIG. 7E).
Based upon the similarities of immune and inflammatory responses in CNV and CVD, the efficacy of SPHINGOMAB to mitigate immune cell infiltration into a wound was evaluated in a murine infarct model as an indication of SPHINGOMAB's potential effects in mitigating these damages during AMD [Vine, et al. (2005), Ophthalmology., vol 112: 2076-80; and Seddon and Chen (2004), Int Ophthalmol Clin., vol 44: 17-39]. Four days post-MI, macrophage and mast cell infiltration was evaluated using MAC-1 and MCG35 antibodies, respectively, within the area at risk.

[4] = BIAcore binding of murine anti-S1P mAb to S1P immobilized on chip; conditions: read-out: affinity (Kd) for S1P
Description: Binding kinetics: The binding kinetics of S1P to its receptor or other moieties has, traditionally, been problematic because of the nature of lipids. Many problems have been associated with the insolubility of lipids. For BIAcore measurements, these problems were overcome by directly immobilizing S1P to a BIAcore chip. Antibody was then flowed over the surface of the chip and alterations in […] were measured to determine the binding characteristics of the antibody to S1P. To circumvent the bivalent binding nature of antibodies, S1P was coated on the chip at low densities. Additionally, the chip was coated with various densities of S1P (7, 20, and 1000 RU) and antibody binding data was globally fit to a 1:1 interaction model.

Row | Molecule | conditions of greatest stability (SE-HPLC) [1] | apparent Tm ([2]; pH 6.0) | apparent Tm ([2]; pH 7.2) | maximal inhibition of CNV area (CNV lesions; 5 μg/eye single intravitreal, 14 days) | reduction in CNV lesion size greater than that observed with the VEGF-Trap (CNV lesions; comparison of two independent studies, VEGF-Trap 4.92 μg/eye (Saishin et al.)) [percentage points] | perivascular fibrosis ([3]; 25 mg/kg from 48 hrs after surgery, two weeks after infarct) | density of inflammatory macrophages ([3]; four days post-MI) | density of mast cells ([3]; four days post-MI) | Kd [4] [nM]
1 | LT1009: humanized anti-S1P IgG1/kappa mAb with Cys to Ala in HCDR2, light chain with 5 backmutations; SEQ ID NO: 31/32 | most stable around pH 6 and 450 mM NaCl | about 77 °C | approximately 73 °C | approximately 50% | 20 |  |  |  | 
2 | B1 |  |  |  |  |  | almost complete abrogation | dramatically attenuated | dramatically attenuated | < 0.1

From patent publication US8026342B2, “Compositions and methods for binding sphingosine-1-phosphate” (Lpath, Inc., priority 2006, dated 2011)
